The results in this text go back to patent US20110002963A1 (IMMATICS BIOTECHNOLOGIES, published 2011).

The chains are these.
B1: MET-005 (peptide)
peptide: TFSYVDPVITSISPKYG
notes: also called IMA-MET-005; full-length MET-005

What is called Kd is the equilibrium constant for the complex coming apart.

In the first experiment the target is T1, MHC molecule coded by the HLA-A*0201 allele (recombinant HLA-A*0201 heavy chain refolded with beta-2 … (human)). The experiment is described as follows: ELISA-based MHC refolding assay, recombinant HLA-A*0201 heavy chain + b2m + graded peptide. In general terms: ELISA stands for enzyme-linked immunosorbent assay.
TMLARLASA (also called IMA-CSP-001) [CSP-001]: the Kd amounted to 2.05 nM.
As for YVDPVITSI (also called MET-005 derived MET-001) [MET-001], the Kd came to 0.14 nM.

A further experiment concerns the target T1, MHC molecule coded by the HLA-A*0201 …. The experiment is described as follows: ELISA-based MHC refolding assay.
Regarding KIQEILTQV (also called IMA-IGF2BP3-001) [IGF2BP3-001], the binding result is recorded as “binds”.
Same read-out and setting: as for AMTQLLAGV (also called IMA-TNC-001) [TNC-001], the entry is “binds”; as for GLWHHQTEV (also called IMA-NRCAM-001) [NRCAM-001], “binds”.
On the same count and under the same terms, as for SLWAGVVVL (also called IMA-CHI-001) [CHI-001], the entry is “binds”; as for LTFGDVVAV (also called IMA-FABP7-001) [FABP7-001], “binds”; as for AIIDGVESV (also called IMA-PTP-003) [PTP-003], “binds”.
On the same count and under the same terms, as for ALWAWPSEL (also called IMA-BCA-002) [BCA-002], the entry is “binds”; as for KVFAGIPTV (also called IMA-PTP-005) [PTP-005], “binds”.
Consider NLDTLMTYV (also called IMA-NLGN4X-001) [NLGN4X-001], for which the binding result was “binds”.

Another experiment has the same target. The experiment is described as follows: tetramer production / HLA-A*0201 refolding with peptide.
For the molecule B1, the binding result is recorded as “no binding”.
